Measured values as given in US12723075B2, “Humanized antibodies directed against KCNK9” (The Johns Hopkins University, priority 2020, dated 2026).

Assays:
[1] = target: T1, human KCNK9 (Homo sapiens, UniProt Q9NPC2); test: Flow cytometry binding to KCNK9-expressing HEK293 cells; settings: for Binding affinity to human KCNK9 relative to parental murine monoclonal antibody: PE conjugate secondary antibody (FIG. 1B)
T1 construct: expressed in transfected cells; host or cells: HEK293 cells, stably transfected, tetracycline-inducible promoter
T1 sequence (Q9NPC2 whole entry): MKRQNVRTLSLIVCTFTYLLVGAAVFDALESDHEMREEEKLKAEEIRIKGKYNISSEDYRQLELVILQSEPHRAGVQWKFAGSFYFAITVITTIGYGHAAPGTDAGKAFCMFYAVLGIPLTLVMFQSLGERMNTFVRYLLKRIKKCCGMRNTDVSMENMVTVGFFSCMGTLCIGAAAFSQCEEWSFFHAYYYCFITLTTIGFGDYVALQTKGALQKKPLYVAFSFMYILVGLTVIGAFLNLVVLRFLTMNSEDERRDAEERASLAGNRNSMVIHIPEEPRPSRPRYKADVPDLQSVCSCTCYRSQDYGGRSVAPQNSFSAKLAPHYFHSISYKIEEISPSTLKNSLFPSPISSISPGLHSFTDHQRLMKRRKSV
From the text: An anti-KCNK9 mouse monoclonal antibody having a VH amino acid sequence of SEQ ID NO: 1 and a VL amino acid sequence of SEQ ID NO: 2 (mu-mAb) was humanized using a method based on Queen et al., Proc. Natl. Acad. Sci. USA, 86: 10029-10033 (1989). The hybridoma antibody was sequenced after amplifying the antibody variable regions by RT-PCR with degenerate primers. The variable regions were fused with the human antibody IgG1 constant regions to produce a chimeric antibody. Antigen binding of the chimeric antibody was confirmed by staining of the KCNK9-expressing cells. HEK293 cells were stably transfected with KCNK9 expression vector under the tetracycline inducible promoter. After induction, the cells were incubated with various concentrations of chimeric KCNK9 antibody for 30 minutes, followed by secondary anti-human Fc FITC conjugate. Chimeric antibody binding was analyzed by flow cytometry. High affinity binding was confirmed with an EC50 of about 0.3 μg/mL (FIG. 1A).
After antibody sequence analysis and structure modeling, the murine antibody CDRs (SEQ ID NOs: 3-8) were grafted into human antibody VK3-11 and VH1-3 frameworks. Critical murine antibody framework residues that support CDR conformation were identified and introduced into the human frameworks. Five variants of the humanized VH sequences (VH1-5; SEQ ID NOs: 9-13) and three variants of the humanized VL variants (VL1-3; SEQ ID NOs: 14-16) were designed and synthesized. All of the variable regions were cloned into a human IgG1 expression vector. The VHs and VLs were cross-matched to generate 15 humanized KCNK9 antibody clones. All humanized antibodies were produced by transient transfection in 293 cells and purified by Protein A chromatography. Antigen binding of the humanized KCNK9 antibodies was characterized by immunofluorescence staining of KCNK9-expressing cells.

[2] = tested on: BEN lung carcinoma xenografts; test: Pre-established BEN lung carcinoma xenografts in nude mice; type: in vivo; settings: 4 mg/kg b.w. twice per week, established tumors, p<0.01 (FIGS. 6A-6D)
Method: Equal numbers of viable BEN cells (4×10^6 cells) were implanted into the flanks of nude mice. Humanized anti-KCNK9 monoclonal antibodies AF-H4L3, AF-H5L2, or control human IgG (4 mg/kg b.w.) were administered twice per week after tumor xenografts were established and palpable. Tumor volumes were then monitored during treatments using caliper measurements every alternate day (N=10 for each group).

[3] = tested on: KCNK9-expressing BEN lung carcinoma cells; test: Cell growth and viability assays (cell numbers, MTT, trypan blue exclusion); type: cell-based, human; settings: 0.4 mg/mL (FIGS. 4A-4C)
Method: The cytotoxic effect of the AF-H4L3 and AF-H5L2 monoclonal antibodies was tested on KCNK9-expressing BEN lung carcinoma cells. Equal numbers of viable BEN cells were treated with AF-H4L3, AF-H5L2, or human IgG control (0.4 mg/mL). Cells were collected at indicated days after treatment for cell growth and viability assays.

[4] = tested on: LX22 PDX small cell lung cancer cells; test: ADCC Reporter Bioassay with luciferase Jurkat effector cells; type: cell-based, human; settings: six hours at 4° C. or 37° C. (FIG. 3)
Method: The capacity of the humanized KCNK9 AF-H5L2 monoclonal antibody to induce ADCC directed against LX22 PDX small cell lung cancer cells also was evaluated. ADCC assays were performed using the ADCC Reporter Bioassay Complete Kit (Promega #G7015). Human lung CA KCNK9+LX22 cells or CD20+ Raji cells (as positive control) were plated at 50,000 cells per well. On the following day, humanized afucosyl anti-KCNK9 (hu-AF-H5), hu-anti-CD20, or non-immune huIgG1 (as negative control) was added. 30 minutes later, FcγIIIa+ Jurkat effector cells expressing the vNFAT-luciferase ADCC reporter were added (300,000 cells/well). Cell mixtures were incubated for six hours at either 4° C. or 37° C. Cells were collected, solubilized, and luciferase activity was quantified as a biomarker of Jurkat cell activation.

[5] = tested on: KCNK9-positive BT549 carcinoma cells; test: Cell viability, KCNK9-positive breast cancer cells; type: cell-based, human; settings: BT549, KCNK9-positive (FIG. 5)
[6] = tested on: KCNK9-negative MDA-MB-231 cells; test: Cell viability, KCNK9-negative cells; type: cell-based, human; settings: MDA-MB-231, KCNK9-negative (FIG. 5)
[7] = tested on: Human LX22 PDX-derived lung carcinoma cells; test: MTT cell viability in combination with PARP or CDK4/6 inhibitor; type: cell-based; settings: 72 hours
Method: Inhibitors of poly-ADP ribose polymerase (PARP) and cyclin dependent kinases (CDK4/6) are FDA-approved and undergoing clinical testing for multiple solid tumors. It was investigated whether inhibiting the KCNK9 K^+ channel with huKCNK9 mAb sensitized cancer cells to these therapeutics. Human LX22 PDX-derived lung carcinoma cells were treated with the PARP inhibitor AZD2461 (100 μM)+/−huKCNK9 mAb (400 μg/ml) or with the CDK4/6 inhibitor palbociclib (0.5 μM)+/−huKCNK9 mAb (400 μg/ml) for 72 hours. Cell viability was then quantified by MTT assay. Statistical comparisons were performed by ANOVA and post-hoc Tukey test.

B1: chimeric KCNK9 antibody: Murine anti-KCNK9 variable regions (SEQ ID NO: 1 and 2) fused with human antibody IgG1 constant regions (antibody, V domains shown)
VH: EVQLQQSGPELVKPGASVKTSCKASGYSFTGYYMYWVKQSPEKSLEWIGEINPSSGGTTYNQKFKAKATLTVDKSSSTAYMQLKSLTFEDSAVYYCARSGLRRRFYAMDYWGQGTSVTVSS
VL: DIVLTQSPASLAVSLGQRATVSCRASESVDSFGTTFMHWYQQKPGQPPKLLIYRASNLESGIPARFSGSGSRTDFTLTINPVEADDVATYYCQQSNKDPPTFGGGSKLEIK
modifications: human IgG1 constant regions lack entries; Mus
EC50 of binding to KCNK9-expressing HEK293 cells ([1]; flow cytometry, 30 minutes incubation, anti-human Fc FITC secondary): about 0.3 μg/mL

B2: H4L3: Humanized KCNK9 IgG1 antibody clone, VH SEQ ID NO: 12 and VL SEQ ID NO: 16 (antibody, V domains shown)
VH: QVQLVQSGAEVKKPGASVKVSCKASGYSFTGYYMYWVRQAPGQRLEWMGEINPSSGGTTYNQKFKARVTLTVDKSASTAYMELSSLRSEDTAVYYCARSGLRRRFYAMDYWGQGTLVTVSS
VL: EIVLTQSPATLSLSPGERATLSCRASESVDSFGTTFMHWYQQKPGQPPRLLIYRASNLESGIPARFSGSGSRTDFTLTISSLEPEDFATYYCQQSNKDPPTFGGGTKVEIK
modifications: human IgG1 constant regions
Binding affinity to human KCNK9 relative to parental murine monoclonal antibody [1]: higher affinity than their parental KCNK9 murine monoclonal antibody

B3: AF-H4L3: Afucosyl version of H4L3 antibody generated using fut8−/− CHO cells (antibody, V domains shown)
VH: QVQLVQSGAEVKKPGASVKVSCKASGYSFTGYYMYWVRQAPGQRLEWMGEINPSSGGTTYNQKFKARVTLTVDKSASTAYMELSSLRSEDTAVYYCARSGLRRRFYAMDYWGQGTLVTVSS
VL: EIVLTQSPATLSLSPGERATLSCRASESVDSFGTTFMHWYQQKPGQPPRLLIYRASNLESGIPARFSGSGSRTDFTLTISSLEPEDFATYYCQQSNKDPPTFGGGTKVEIK
Effect on tumor growth (tumor volume) [2]: significantly attenuated tumor growth | Effect on cell growth and viability [3]: inhibited cell growth and viability

B4: H5L2: Humanized KCNK9 IgG1 antibody clone, VH SEQ ID NO: 13 and VL SEQ ID NO: 15 (antibody, V domains shown)
VH: QVQLVQSGAEVKKPGASVKVSCKASGYSFTGYYMYWVRQAPGQRLEWIGEINPSSGGTTYNQKFKARATLTVDKSASTAYMELSSLRSEDTAVYYCARSGLRRRFYAMDYWGQGTLVTVSS
VL: EIVLTQSPATLSLSPGERATLSCRASESVDSFGTTFMHWYQQKPGQAPRLLIYRASNLESGIPARFSGSGSRTDFTLTISSLEPEDFAVYYCQQSNKDPPTFGGGTKVEIK
modifications: human IgG1 constant regions
Binding affinity to human KCNK9 relative to parental murine monoclonal antibody [1]: higher affinity than their parental KCNK9 murine monoclonal antibody

B5: AF-H5L2: Afucosyl version of H5L2 antibody generated using fut8−/− CHO cells (antibody, V domains shown)
VH: QVQLVQSGAEVKKPGASVKVSCKASGYSFTGYYMYWVRQAPGQRLEWIGEINPSSGGTTYNQKFKARATLTVDKSASTAYMELSSLRSEDTAVYYCARSGLRRRFYAMDYWGQGTLVTVSS
VL: EIVLTQSPATLSLSPGERATLSCRASESVDSFGTTFMHWYQQKPGQAPRLLIYRASNLESGIPARFSGSGSRTDFTLTISSLEPEDFAVYYCQQSNKDPPTFGGGTKVEIK
Effect on tumor growth (tumor volume) [2]: significantly attenuated tumor growth | ADCC induction (luciferase activity of Jurkat effector cells) [4]: induced ADCC that was temperature dependent | Effect on cell viability [5]: inhibited the viability | Effect on cell viability [6]: without effecting the viability | Effect on cell toxicity induced by PARP inhibition ([7]; 400 μg/ml mAb + AZD2461 100 μM, MTT (FIG. 7A)): substantially augmented | Effect on cell toxicity induced by CDK4/6 inhibition ([7]; 400 μg/ml mAb + palbociclib 0.5 μM, MTT (FIG. 7B)): substantially augmented | Activity compared between the two clones, cell growth and viability [3]: comparatively more active | Effect on cell growth and viability [3]: inhibited cell growth and viability
